Measured values: patent US20260191905A1 (MODERNATX, published 2026)
Each block holds one binder with its values, some of them ahead of it.

Legend:
[1] = target: T1, human GPC3 recombinant protein (human, UniProt P51654 25-559); test: SPR (Biacore) off-rate screen, periplasmic extract over human GPC3 on CM5; R0 45.4
T1 construct: also called huGPC3; Human GPC3 protein
Description: (§1) Human GPC3 protein in acetate buffer, pH 5.0, was immobilized in a sensor chip CM5 (GE Healthcare; Cat. Nr. BR-1005-30; Lot. Nr.10245232) and successful immobilization was confirmed by using a commercially available human GPC3 antibody (R&D cat. nr. MAB2119) and the anti-GPC3-VHH-Fc (both at 10 μg/mL). Periplasmic extracts from the MP were diluted in Biacore Buffer (0.01 M HEPES pH 7.4, 0.15 M NaCl, 3 mM EDTA, 0.05% P20) and injected over 2 minutes at 30 μL/min. 10 μl of 10 mM NaOH/1M NaCl were injected between samples and off-rates were measured over 5 minutes. Off-rate ([…]) were calculated using BIACORE software 1:1 interaction Langmuir binding model.

[2] = target: T1, human GPC3 recombinant protein; test: SPR (Biacore) off-rate screen, periplasmic extract over human GPC3 on CM5; R0 24.6
Description: as §1

[3] = target: T1, human GPC3 recombinant protein; test: SPR (Biacore) off-rate screen, periplasmic extract over human GPC3 on CM5; R0 6.06; asterisk not explained on the sheet
Description: as §1

[4] = target: T1, human GPC3 recombinant protein; test: SPR (Biacore) off-rate screen, periplasmic extract over human GPC3 on CM5; R0 30.5
Description: as §1

[5] = target: T2, human GPC3 on HepG2 cells (human, UniProt P51654 25-554); test: FACS, periplasmic extract 1:5 + anti-c-myc + GAM-APC on HepG2, well F3; same on A-431: 965.7
T2 construct: whole, on cells

[6] = target: T2, human GPC3 on HepG2 cells; test: FACS, phage-displayed clone on HepG2, well F3; same clone on A-431 (no GPC3): 1.39%
[7] = target: T2, human GPC3 on HepG2 cells; test: FACS, phage-displayed clone on HepG2, well F3; same clone on A-431 (no GPC3): 1412.11
[8] = target: T2, human GPC3 on HepG2 cells; test: FACS, periplasmic extract 1:5 + anti-c-myc + GAM-APC on HepG2, well F3; same on A-431: 0.18%
[9] = target: T1, human GPC3 recombinant protein; test: SPR (Biacore) off-rate screen, periplasmic extract over human GPC3 on CM5; R0 39.2
Description: as §1

[10] = target: T1, human GPC3 recombinant protein; test: SPR (Biacore), summary table; Chi2 0.266; Profile 'Good'
Description: (§2) Affinities of the 19 VHH-His tagged domains were then determined by BiaCore assay. Human GPC3 protein (Sino biological cat. nr. 10088-H08H-500) was immobilized on CM5 sensor chip (GE Healthcare) as antigen. Purified VHH-His tagged domains were diluted in BiaCore buffer (0.01 M HEPES pH 7.4, 0.15 M NaCl, 3 mM EDTA, 0.05% P20) to 500 nM and injected over 2 minutes at […] followed by a half dilution series to 7.8 nM. 10 μl of 10 mM NaOH/1M NaCl were injected between samples and then off-rate wash was 5 minutes.

[11] = target: T1, human GPC3 recombinant protein; test: SPR (Biacore), VHH-His over human GPC3 on CM5; fit 131.7 - 17.34 nM; Rmax 9.97 RU; Chi2 0.266
Description: as §2

[12] = target: T1, human GPC3 recombinant protein; test: SPR (Biacore) off-rate screen, periplasmic extract over human GPC3 on CM5; R0 41.0
Description: as §1

[13] = target: T1, human GPC3 recombinant protein; test: SPR (Biacore) off-rate screen, periplasmic extract over human GPC3 on CM5; R0 56.5
Description: as §1

[14] = target: T1, human GPC3 recombinant protein; test: SPR (Biacore), summary table; Chi2 0.59; Profile 'Good'; FIG. 18 prints 5.24E-09
Description: as §2

[15] = target: T1, human GPC3 recombinant protein; test: SPR (Biacore) off-rate screen, periplasmic extract over human GPC3 on CM5; R0 47.2
Description: as §1

[16] = target: T2, human GPC3 on HepG2 cells; test: FACS, phage-displayed clone on HepG2, well D3; same clone on A-431 (no GPC3): 1.16%
[17] = target: T2, human GPC3 on HepG2 cells; test: FACS, periplasmic extract 1:5 + anti-c-myc + GAM-APC on HepG2, well D3; same on A-431: 802.83
[18] = target: T1, human GPC3 recombinant protein; test: SPR (Biacore), VHH-His over human GPC3 on CM5; fit 197.5 - 26.0 nM; Rmax 14.1 RU; Chi2 0.59
Description: as §2

[19] = target: T2, human GPC3 on HepG2 cells; test: FACS, phage-displayed clone on HepG2, well D3; same clone on A-431 (no GPC3): 1102.21
[20] = target: T2, human GPC3 on HepG2 cells; test: FACS, periplasmic extract 1:5 + anti-c-myc + GAM-APC on HepG2, well D3; same on A-431: 0.36%
[21] = target: T1, human GPC3 recombinant protein; test: SPR (Biacore), summary table; Chi2 0.43; Profile 'Good'; FIG. 18 prints 6.64E-09
Description: as §2

[22] = target: T2, human GPC3 on HepG2 cells; test: FACS, periplasmic extract 1:5 + anti-c-myc + GAM-APC on HepG2, well C3; same on A-431: 697.44
[23] = target: T1, human GPC3 recombinant protein; test: SPR (Biacore), VHH-His over human GPC3 on CM5; fit 250 - 7.8 nM; Rmax 9.47 RU; Chi2 0.43
Description: as §2

[24] = target: T2, human GPC3 on HepG2 cells; test: FACS, phage-displayed clone on HepG2, well C3; same clone on A-431 (no GPC3): 1100.37
[25] = target: T1, human GPC3 recombinant protein; test: SPR (Biacore) off-rate screen, periplasmic extract over human GPC3 on CM5; R0 31.6
Description: as §1

[26] = target: T2, human GPC3 on HepG2 cells; test: FACS, periplasmic extract 1:5 + anti-c-myc + GAM-APC on HepG2, well C3; same on A-431: 0.12%
[27] = target: T2, human GPC3 on HepG2 cells; test: FACS, phage-displayed clone on HepG2, well C3; same clone on A-431 (no GPC3): 1.31%
[28] = target: T1, human GPC3 recombinant protein; test: SPR (Biacore), summary table; Chi2 0.636; Profile 'Very good'
[29] = target: T1, human GPC3 recombinant protein; test: SPR (Biacore) off-rate screen, periplasmic extract over human GPC3 on CM5; R0 107.0
Description: as §1

[30] = target: T1, human GPC3 recombinant protein; test: SPR (Biacore), VHH-His over human GPC3 on CM5; fit 87.8 - 17.34 nM; Rmax 38.9 RU; Chi2 0.636
Description: as §2

T2 sequence (P51654 25-554 limits assumed): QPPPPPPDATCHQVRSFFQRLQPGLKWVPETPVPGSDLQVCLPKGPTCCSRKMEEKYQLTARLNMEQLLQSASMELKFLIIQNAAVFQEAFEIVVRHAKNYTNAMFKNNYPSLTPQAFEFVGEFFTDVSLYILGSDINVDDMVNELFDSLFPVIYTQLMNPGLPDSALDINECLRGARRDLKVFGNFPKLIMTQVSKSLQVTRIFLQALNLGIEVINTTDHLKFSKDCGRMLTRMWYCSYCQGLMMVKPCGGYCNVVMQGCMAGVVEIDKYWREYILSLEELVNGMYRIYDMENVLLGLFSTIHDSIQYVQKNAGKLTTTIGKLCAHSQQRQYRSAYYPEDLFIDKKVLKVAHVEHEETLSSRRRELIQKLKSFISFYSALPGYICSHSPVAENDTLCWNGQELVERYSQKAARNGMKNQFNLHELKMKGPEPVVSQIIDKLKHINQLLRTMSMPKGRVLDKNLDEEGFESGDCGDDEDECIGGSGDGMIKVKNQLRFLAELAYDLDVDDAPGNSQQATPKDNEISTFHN
T1 sequence (P51654 25-559 limits assumed): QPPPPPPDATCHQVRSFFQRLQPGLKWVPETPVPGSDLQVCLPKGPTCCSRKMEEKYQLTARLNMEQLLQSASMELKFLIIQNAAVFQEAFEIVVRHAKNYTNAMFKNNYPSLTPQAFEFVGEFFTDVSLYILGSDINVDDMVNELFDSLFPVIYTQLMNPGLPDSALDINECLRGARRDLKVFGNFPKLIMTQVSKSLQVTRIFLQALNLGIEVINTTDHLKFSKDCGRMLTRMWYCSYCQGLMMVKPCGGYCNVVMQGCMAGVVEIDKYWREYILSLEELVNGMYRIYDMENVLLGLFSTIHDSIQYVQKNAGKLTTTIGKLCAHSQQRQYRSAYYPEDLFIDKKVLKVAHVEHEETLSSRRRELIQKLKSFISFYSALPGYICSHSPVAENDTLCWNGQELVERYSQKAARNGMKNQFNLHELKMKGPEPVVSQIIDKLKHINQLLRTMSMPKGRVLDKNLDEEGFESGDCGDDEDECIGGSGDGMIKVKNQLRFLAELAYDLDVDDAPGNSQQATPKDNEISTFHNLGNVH

B1: VH20 (VHH)
VHH: EVQLVESGGGLVQPGGSLRLSCAASGFTFSSYAMSWVRQAPGKEPEWISSISGSGSSTYYADSLKGRFTISRDNSKNTLYLQMNSLRAEDTAVYYCSKDPRFGEPPFDYWGQGTTVTVSS
notes: also called VHH20
koff [1]: 0.00249 s⁻¹

B2: VH24 (VHH)
VHH: EVQLVESGGGLVQPGGSLRLSCAASGFTFSSYAMSWVRQAPGKEPEWVSSISGGGTSTYYADSLEGRFTISRDNSKNTLYLQMNSLRAEDTAVYYCSKDPRFGEPPFDYWGQGTLVTVSS
notes: also called VHH24
koff [2]: 0.00367 s⁻¹

B4: VH25 (VHH)
VHH: EVQLVESGGGLVQPGGSLRLSCAASGFTFSSYAMSWVRQAPGKESEWVSSISGSGSSTYYADSLKGRFTISRDNSKNTLYLQMNSLRAEDTAVYYCSKDPRFGEPPFDYWGQGTLVTVSS
notes: also called VHH25
koff [4]: 0.00378 s⁻¹

B7: VH22 (VHH)
VHH: EVQLVESGGGLVQPGGSLRLSCAASGFTFSSYAMSWVRQAPGKEPEWVSSISGGGSSTYYADSLKGRFTISRDNSKNTLYLQMDSLRAEDTAVYYCSRDPRFGEPPFDYWGQGTLVTVSS
notes: also called VHH22
koff [13]: 0.00282 s⁻¹

Second part, the binder after the results:

koff [3]: 0.00983 s⁻¹
B3: VH30 (VHH)
VHH: QVQLVESGGGLVQPGGSLRLSCAASGFIFSSYAMSWVRQAPGKEPEWVSSISGGGSSTYYADSLEGRFTISRDNSKNTLYLQMNSLRAEDTAVYYCSKDPRFFEPPFDYWGQGTLVTVSS
notes: also called VHH30

Mean FL4-A [5]: 1830
% of Binding [6]: 89%
Mean FL2-A [7]: 130000
% of Binding [8]: 0.52%
koff [9]: 0.0062 s⁻¹
Kd [10]: 6.15 nM
Ka [11]: 1.63e+08 M⁻¹
Kd [11]: 6.15 nM
koff [11]: 0.00326 s⁻¹
kon [11]: 530000 M⁻¹ s⁻¹
B5: anti-GPC3 VHH-His tagged domain VHH9 (VHH)
VHH: QVQLVESGGGLVQPGGSLRLSCAASGFTFSSYAMSWVRQAPGKEPEWVSSISGGGSSTYYADSLKGRFTISRDNSKNTLYLQMNSLRAEDTAVYYCSRDPRFGEPPLDYWGQGTTVTVSS
notes: Produced from a mammalian expression vector as a His fusion; not shown: His tag

koff [12]: 0.00507 s⁻¹
B6: VH34 (VHH)
VHH: QVQLVESGGGLVRPGGSLRLSCAASGFTFSSYAMSWVRQAPGKEPEWVSSISGGGSSTYYADSLKGRFTISRDNSKNTLYLQMNSLRAEDTAVYYCSRDPRFGEPPFDYWGQGTLVTVSS
notes: also called VHH34

Kd [14]: 3.68 nM
koff [15]: 0.00366 s⁻¹
% of Binding [16]: 74.3%
Mean FL4-A [17]: 812
Ka [18]: 1.91e+08 M⁻¹
Kd [18]: 5.24 nM
koff [18]: 0.00253 s⁻¹
kon [18]: 484000 M⁻¹ s⁻¹
Mean FL2-A [19]: 57900
% of Binding [20]: 0.5%
B8: anti-GPC3 VHH-His tagged domain VHH5 (VHH)
VHH: EVQLVESGGGLVQPGGSLRLSCAASGFTFSSYAMSWVRQAPGKEPEWVSSISGGGSSAYYADSLKGRFTISRDNSKNTLYLQMNSLRAEDTAVYYCSRDPRFGEPPFDYWGQGTTVTVSS
notes: as for B5

Kd [21]: 4.34 nM
Mean FL4-A [22]: 915
Ka [23]: 1.51e+08 M⁻¹
Kd [23]: 6.64 nM
koff [23]: 0.00197 s⁻¹
kon [23]: 296000 M⁻¹ s⁻¹
Mean FL2-A [24]: 43500
koff [25]: 0.00221 s⁻¹
% of Binding [26]: 0.64%
% of Binding [27]: 68.7%
B9: anti-GPC3 VHH-His tagged domain VHH6 (VHH)
VHH: QVQLVESGGGLVQPGGSLRLSCAASGFIFSSYAMSWVRQAPGKEPEWVSSISGGGSSTYYADSLEGRFTISRDNSKNTLYLQMNSLRAEDTAVYYCSKDPRFGEPPFDYWGQGTTVTVSS
notes: as for B5

Kd [28]: 2.73 nM
koff [29]: 0.00184 s⁻¹
Ka [30]: 3.66e+08 M⁻¹
Kd [30]: 2.73 nM
koff [30]: 0.000967 s⁻¹
kon [30]: 354000 M⁻¹ s⁻¹
B10: anti-GPC3 VHH-His tagged domain VHH2 (VHH)
VHH: QVQLVESGGGLVQPGGSLRLSCAASGFTFSNYLMHWVRQAPGKGLEWLSNINSDGSSTYYADSVKGRFTISRDNSKNTLYLQMNSLRAEDTAVYYCTVGAFDYWGQVTTGTVSS
notes: as for B5
